Measurements as given in US20130230533A1 (Regeneron, published 2013).

T1: Dimeric human CD48-mFc (human)
T1 construct: the whole entry is the construct; also called hCD48-mFc
T1 chain: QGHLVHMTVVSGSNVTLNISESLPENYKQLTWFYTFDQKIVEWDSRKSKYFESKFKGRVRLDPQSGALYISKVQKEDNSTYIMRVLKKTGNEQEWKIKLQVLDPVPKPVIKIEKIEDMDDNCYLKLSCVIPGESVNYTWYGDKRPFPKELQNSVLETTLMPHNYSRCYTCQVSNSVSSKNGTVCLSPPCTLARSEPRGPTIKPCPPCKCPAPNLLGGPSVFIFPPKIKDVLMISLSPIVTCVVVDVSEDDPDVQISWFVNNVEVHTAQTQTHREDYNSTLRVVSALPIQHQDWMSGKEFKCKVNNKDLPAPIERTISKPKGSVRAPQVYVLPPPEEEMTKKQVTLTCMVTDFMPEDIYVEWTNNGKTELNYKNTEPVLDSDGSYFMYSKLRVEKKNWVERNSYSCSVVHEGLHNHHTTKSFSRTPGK

T2: Monomeric human CD48-mmH (human)
T2 chain: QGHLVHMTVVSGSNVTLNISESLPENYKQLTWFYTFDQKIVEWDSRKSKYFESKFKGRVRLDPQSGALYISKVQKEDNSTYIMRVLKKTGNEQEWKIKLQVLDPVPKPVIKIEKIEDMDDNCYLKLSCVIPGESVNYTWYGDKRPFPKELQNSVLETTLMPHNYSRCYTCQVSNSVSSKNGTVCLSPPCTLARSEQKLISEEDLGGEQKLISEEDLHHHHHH

T3: Monomeric human CD48-mmH (human)
T3 construct: also called soluble CD48 expressed with a myc-myc-hexa-histidine C-terminal tag [mmH]
T3 chain: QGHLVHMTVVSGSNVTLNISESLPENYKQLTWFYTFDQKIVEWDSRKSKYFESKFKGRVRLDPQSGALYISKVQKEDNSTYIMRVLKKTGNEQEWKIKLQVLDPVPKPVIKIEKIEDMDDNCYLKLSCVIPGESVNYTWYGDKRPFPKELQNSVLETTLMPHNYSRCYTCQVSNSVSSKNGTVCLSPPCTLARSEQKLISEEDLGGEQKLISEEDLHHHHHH

T4: Dimeric human CD48-mFc (human)
T4 chain: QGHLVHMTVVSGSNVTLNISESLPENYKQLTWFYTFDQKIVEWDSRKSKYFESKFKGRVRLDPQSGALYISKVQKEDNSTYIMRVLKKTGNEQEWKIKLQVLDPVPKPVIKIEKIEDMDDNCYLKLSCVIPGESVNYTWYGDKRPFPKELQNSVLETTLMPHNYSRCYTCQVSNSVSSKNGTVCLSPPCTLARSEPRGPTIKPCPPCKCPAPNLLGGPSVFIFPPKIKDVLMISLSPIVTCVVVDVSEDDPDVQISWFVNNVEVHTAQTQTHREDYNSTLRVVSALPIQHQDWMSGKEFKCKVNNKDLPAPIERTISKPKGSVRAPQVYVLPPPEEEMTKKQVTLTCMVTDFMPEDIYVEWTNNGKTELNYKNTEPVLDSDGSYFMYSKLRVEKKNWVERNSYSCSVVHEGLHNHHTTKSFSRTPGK


Assays:
[1] = biological target: T1, Dimeric human CD48-mFc; assay: SPR (Biacore), antibody captured by anti-Fc, CD48 in solution, 37 C
Experimental: (§1) Measurements were conducted on a T100-2 BIACORE™ instrument (Biacore Life Sciences division of GE Healthcare, Piscataway, N.J.). Antibodies (either with mouse Fc [designated “H2M” or “H3M”] or human IgG4 Fc [designated “H4H”]) were captured through an anti-Fc chip surface, and CD48 was flowed over the surface either in a monomeric (soluble CD48 expressed with a myc-myc-hexa-histidine C-terminal tag [mmH]) or dimeric (soluble CD48 expressed with a C-terminal Fc fusion [mFc]) format.
(§2) The soluble CD48 was applied to the flow cell in separate injections at different concentrations, and kinetic association (kₐ) and dissociation (kd) rate constants were determined by fits to the kinetic binding data using Biacore software. Binding dissociation equilibrium constants and dissociation half-times were calculated from the kinetic rate constants as: KD=kd/kₐ; t_{1/2}=(ln 2/kd) (units: ka=M⁻¹*s⁻¹; kd=s⁻¹; KD=M; T½=min) (Tables 3-6).

[2] = biological target: T2, Monomeric human CD48-mmH; assay: as above
Experimental: as §1, §2

[3] = biological target: T3, Monomeric human CD48-mmH; assay: SPR (Biacore T100), 25 C, antibody captured by anti-Fc, monomeric CD48-mmH in solution
Experimental: as §1, §2

[4] = biological target: T4, Dimeric human CD48-mFc; assay: SPR (Biacore T100), 25 C, antibody captured by anti-Fc, dimeric CD48-mFc in solution
Experimental: as §1, §2

| Binder | Kd [1] | T½ [1] | koff [1] | kon [1] | Kd [2] | T½ [2] | koff [2] | kon [2] | Kd [3] | T½ [3] | koff [3] | kon [3] | Kd [4] | T½ [4] | koff [4] | kon [4] |
| --- | --- | --- | --- | --- | --- | --- | --- | --- | --- | --- | --- | --- | --- | --- | --- | --- |
| H2M1707N (antibody, V domains shown, Human variable domains, mouse IgG2 Fc (H2M)) VH: EGQLLESGGGLAQPGGSLRLSCAASGITFGRYAMSWVRQAPGKGLEWVSLISGSGGSTYHADSVKGRFTISRDNSKNTLYLQMNSLRAEDTAVYYCAIYNNYNWFDPWGQGTLVTVSS VL: EIVLTQSPGTLSLSPGERATLSCRASQSVSSNYLAWYQQKPGQAPRLLIYDASSRATDIPDRFSGSGSGTDFTLTISRLEPEDFAVYYCQQYGSSPRTFGQGTKVEIK | 0.247 nM | 51 min | 0.000227 s⁻¹ | 920000 M⁻¹ s⁻¹ | 14.7 nM | 4 min | 0.00314 s⁻¹ | 214000 M⁻¹ s⁻¹ |  |  |  |  |  |  |  |  |
| H2M1709N (antibody, mouse IgG2, V domains shown, Human variable domains, mouse IgG2 Fc (H2M)) VH: QVQLVQSGAEVKKPGASVKVSCKVSGYTLTELSIHWVRQAPGKGLEWMGGFDPEDGETIYAQKFQGRVNMTEDTSTDTAYMELSSLRSDDTTVYFCASLLPYFDYWGQGTLVTVSS VL: EIVLTQSPGTLSLSPGERATLSCRASQSVSSSYLAWYQQKPGQAPRLLIYGASSRATGIPDRFSGSGSGTDFTLSISRLEPEDFAVYFCQQYGSSMYTFGQGTKLEIK | 0.248 nM | 31 min | 0.000377 s⁻¹ | 1.52e+06 M⁻¹ s⁻¹ | 35.1 nM | 0 min | 0.04 s⁻¹ | 1.14e+06 M⁻¹ s⁻¹ |  |  |  |  |  |  |  |  |
| H2M1764N (antibody, mouse IgG2, V domains shown, Human variable domains, mouse IgG2 Fc (prefix H2M)) VH: QVQLVESGGGVVQPGRSLRLSCAASGFTFSDYGMHWVRQAPGKGLEWVAVIWNDGSNKNYADSVKGRFSISSDSSKNTLYLHMNSLRAEDTAVYYCARSLYSTSPWYFDLWGRGTLVTVSS VL: not shown |  |  |  |  |  |  |  |  | 23.5 nM | 4 min | 0.00285 s⁻¹ | 121000 M⁻¹ s⁻¹ | 1.03 nM | 43 min | 0.000266 s⁻¹ | 259000 M⁻¹ s⁻¹ |
| H4H1764N (antibody, human IgG4, V domains shown, Human IgG4 Fc (prefix H4H)) VH: QVQLVESGGGVVQPGRSLRLSCAASGFTFSDYGMHWVRQAPGKGLEWVAVIWNDGSNKNYADSVKGRFSISSDSSKNTLYLHMNSLRAEDTAVYYCARSLYSTSPWYFDLWGRGTLVTVSS VL: not shown |  |  |  |  |  |  |  |  | 23.6 nM | 5 min | 0.00248 s⁻¹ | 105000 M⁻¹ s⁻¹ | 0.226 nM | 191 min | 6.05e-05 s⁻¹ | 268000 M⁻¹ s⁻¹ |
| H2M1713N (antibody, mouse IgG2, V domains shown, Human variable domains, mouse IgG2 Fc (prefix H2M)) VH: QVQLVQSGAEVKKPGASVKVSCKASGHTFTNYYIHWVRQAPGQGLEWMGITNPNDGNTRYAQKFQGRISMTWDTSTSTVFMELSSLKSEDTAVYYCAGLRYWFFDLWGRGTPVTVSS VL: DIQMTQSPSSVSASVGDRVTITCRASQDISSWLAWYQQKPGKAPNLLIFAASSLQSGVPSRFSGSGSGTDFTLTISSLQPEDFGTYYCQQTDNFPRTFGQGTKVEIN |  |  |  |  |  |  |  |  | 1.35 nM | 53 min | 0.000217 s⁻¹ | 161000 M⁻¹ s⁻¹ | 0.0134 nM | 1040 min | 1.11e-05 s⁻¹ | 826000 M⁻¹ s⁻¹ |
| H4H1713N (antibody, human IgG4, V domains shown, Human IgG4 Fc (prefix H4H)) VH: QVQLVQSGAEVKKPGASVKVSCKASGHTFTNYYIHWVRQAPGQGLEWMGITNPNDGNTRYAQKFQGRISMTWDTSTSTVFMELSSLKSEDTAVYYCAGLRYWFFDLWGRGTPVTVSS VL: DIQMTQSPSSVSASVGDRVTITCRASQDISSWLAWYQQKPGKAPNLLIFAASSLQSGVPSRFSGSGSGTDFTLTISSLQPEDFGTYYCQQTDNFPRTFGQGTKVEIN |  |  |  |  |  |  |  |  | 0.893 nM | 67 min | 0.000174 s⁻¹ | 194000 M⁻¹ s⁻¹ | 0.0212 nM | 609 min | 1.9e-05 s⁻¹ | 894000 M⁻¹ s⁻¹ |
